Results taken from patent publication US20250243292A1 (published 2025).
Where a chain is given by its changes, count along the chain named. Where two headings read alike, the source gives them in different places.

T1: CD24-GST fusion protein
T1 chain: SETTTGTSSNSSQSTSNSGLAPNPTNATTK

B1: PP6368 (antibody, V domains shown)
VH: EVKFEESGGGLVQPGGSIKLSCAASGVTFSEAWMDWVRQSPEKGLEWVAEIRDKPNSYVTYYAESVKGRFTISRDDSKSRVYLQMNNLRTEDTGIYYCTGAMDYWGQGTSVTVSS
VL: DIVMTQTPLSLSVTIGQPASISCKSSQSLLYSNGKTYLNWLQQRPGQSPKRLIYQVSKLDPGIPDRFSGSGSETDFTLKISRVEAEDLGIYYCMQGTYLPWTFGGGTKLEIKR
B2: PP6372 (antibody, V domains shown)
VH: B1 VH with P55Q, S57E
VL: B1 VL with T97S, Y98S
B3: PP6369 (antibody, V domains shown)
VH: B1 VH with T28P, E31G, P55T, N56K, S57N
VL: B1 VL
B4: PP6226 (antibody, V domains shown)
VH: B1 VH with P55T, N56K, S57N
VL: B1 VL with M94L, Y98S, L99Y
B5: PP6228 (antibody, V domains shown)
VH: B1 VH with T28A, E31G, P55T, N56K, S57N, I95V
VL: B1 VL with M94L, Y98S, L99Y
B6: PP6230 (antibody, V domains shown)
VH: B1 VH with P55S, N56T, S57N
VL: B1 VL with M94L, Y98S, L99Y
B7: PP6370 (antibody, V domains shown)
VH: B1 VH with P55T, N56K, S57N, S79G
VL: B1 VL
B8: PP6388 (antibody, V domains shown)
VH: B1 VH with S40T, K54R, P55E, N56T, S57K
VL: B1 VL
B9: PP6233 (antibody, V domains shown)
VH: B1 VH with P55T, N56K, S57N
VL: B1 VL with T97A, Y98S
B10: PP6234 (antibody, V domains shown)
VH: B1 VH with P55T, N56K, S57N
VL: B1 VL with I63T, T97A, Y98S, L99V
B11: PP6231 (antibody, V domains shown)
VH: B1 VH with K54N, P55T, N56T, S57N
VL: B1 VL with M94L, Y98S, L99Y
B12: PP6373 (antibody, V domains shown)
VH: B1 VH
VL: B1 VL with T97S, Y98S
B13: PP6235 (antibody, V domains shown)
VH: B1 VH with T28A, E31G, P55T, N56K, S57N, I95V
VL: B1 VL with T97A, Y98S
B14: PP6236 (antibody, V domains shown)
VH: B1 VH with K54N, P55T, N56T, S57N
VL: B1 VL with T97A, Y98S
B15: PP6371 (antibody, V domains shown)
VH: B1 VH with S40T, K54R, P55E, N56T, S57K
VL: B1 VL with Y98S
B16: PP6387 (antibody, V domains shown)
VH: B1 VH with P55T, N56K, S57N, S79G
VL: B1 VL with T97S, Y98S
B17: PP6232 (antibody, V domains shown)
VH: B1 VH with P55T, N56K, S57N
VL: B1 VL with I63T, Y98S, L99T

Assays:
Assay in all cases: competitive ELISA
CD24-GST fusion protein [1] = biological target: T1, CD24-GST fusion protein
CD24-GST fusion protein [2] = biological target: T1, CD24-GST fusion protein
CD24-GST fusion protein [3] = biological target: T1, CD24-GST fusion protein

| Binder | IC50 (CD24-GST fusion protein [1]) [µg/mL] | IC50 (CD24-GST fusion protein [2]) [µg/mL] | IC50 (CD24-GST fusion protein [3]) [µg/mL] |
| --- | --- | --- | --- |
| B1 | 0.0299 | – | – |
| B2 | 0.0269 | 0.0268 | – |
| B3 | 0.0611 | – | – |
| B4 | 0.0856 | 0.0834 | 0.0814 |
| B5 | – | – | 0.0888 |
| B6 | – | – | 0.0589 |
| B7 | 0.0642 | – | – |
| B8 | – | 0.0249 | – |
| B9 | – | – | 0.0372 |
| B10 | – | – | 0.0426 |
| B11 | – | – | 0.0768 |
| B12 | – | 0.0207 | – |
| B13 | 0.0419 | 0.0415 | 0.0411 |
| B14 | 0.0336 | – | – |
| B15 | 0.0345 | – | – |
| B16 | – | 0.0284 | – |
| B17 | – | – | 0.0713 |
